From the RNAGym collection of RNA variant scans (doi:10.7554/elife.90254)

B1: OR4K15 (parent)
chain: GUUAACGGUCAUAGGCCAUGGAAACUAGGAGCACCAUUUCGCUGCCAGUGAAGAAAUGAACAAAGAAAAUCUGGGCCAGGCAGGCAUCAAAAGAAAUAGUCUUGCGCUCAACCAGAAAGUCUGUAAUCAUUUUAAGGGUA

Variants of: B1
Test: self-cleavage, relative activity (ratio to wild type); higher = more cleavage; in vitro, sequencing; the parent is a self-cleaving ribozyme

| Variant | self-cleavage |
| --- | --- |
| GUUAACGGUCAUAGGCCAUGGAAACUAGGAGCACCUUUUCGCUGCCAGUGAAGAAAUGAACAAAGAAAAUCUGGGCCAGGCAGGCAUCAAAAGAAAUAGUCUUGCGCUCAACCAGAAAGUCUGUAAUCGUUUUAAGGGUA [A36U A129G] | 1.12 |
| GUUAACGGUCAUAGGCCAUGGAAACUAGGAGCACCAUUUCGCUGCCAGUGAAGAAAUGAACAAAGAAAGUCUGGGCCAGGCAGGCAUCAAAAGAAAUAGUCUUCCGCUCAACCAGAAAGUCUGUAAUCAUUUUAAGGGUA [A69G G104C] | 0.01 |
| GUUAACGGUCAUAGGCCAUGGAAACUAGGAGCACCAUUCCGCUGCCAGUGAAGAAAUGAACAAAGAAACUCUGGGCCAGGCAGGCAUCAAAAGAAAUAGUCUUGCGCUCAACCAGAAAGUCUGUAAUCAUUUUAAGGGUA [U39C A69C] | 1.33 |
| GUUAACGGUCAUAGGCCAUGGAAACUAGGAGCACCAUUUCGCUGCCAGUGAAGAAAUGAACAAAGAAAAUCUGGGCCAGGCAGGCAUCAAAAGGAAUAGUCUUGCGCUCAACCAGAAAGCCUGUAAUCAUUUUAAGGGUA [A94G U120C] | 1.02 |
| GUUAACGGUCAUAGGCCAUGGAAACUGGGAGCACCAUUUCGCUGCCAGUGAAGAAAUGAACGAAGAAAAUCUGGGCCAGGCAGGCAUCAAAAGAAAUAGUCUUGCGCUCAACCAGAAAGUCUGUAAUCAUUUUAAGGGUA [A27G A62G] | 1.46 |
| GUUAACGGUCAUAGGCCAUGAAAACUAGGAGCGCCAUUUCGCUGCCAGUGAAGAAAUGAACAAAGAAAAUCUGGGCCAGGCAGGCAUCAAAAGAAAUAGUCUUGCGCUCAACCAGAAAGUCUGUAAUCAUUUUAAGGGUA [G21A A33G] | 0.33 |
| GUUAACGGUAAUAGGCCAUGGAAACUAGGAGCACCAUUUCGCUGCCAGUGAAGAAAUGAACAAAGAAAAUCUGGGCCAGGCAGGCAUCAAAAGAAAUAGUCUUGCGCUCAACCAGAAAGUCUGUAACCAUUUUAAGGGUA [C10A U127C] | 0.84 |
| GUUAACGGUCAUAGGCCAUGGAAACUAGGAGCACCAUUUCGCUGCCAGUGAAGAAAUGAACAAAGAAAAUCUGGGCCAGGCAGGCAUCAAAAGAAAUAGUCUUGCGCUCAACCAGAAAGUCUGUAAUCGAUUUAAGGGUA [A129G U130A] | 1.41 |
| GUUAACGGUCAUAGGCCAUGGAAACUAGGAGCACCAUUUCGCUGCCAGUGAAGAAAUGAGCAAAGAAAAUCUGGGCCAGGCAGGCAUCAAAAGAAAUAGUCUUGCGCUCAACCAGAAAGUCUGUAAUCAUUUUAAGGGCA [A60G U139C] | 0.47 |
| GUUAACGGUCAUAGGCCAUGGAAACUAGGAGCACCAUUUCGCUGCCAGUGAAGAAAUGAACAAAGAAAAUCCGGGCCAGGCAGGCAUCAAAAGAAAUAGUCUUGCGCUCAACCAGAAAGUCUGUAGUCAUUUUAAGGGUA [U72C A126G] | 0.12 |
| GUUAUCGGUCAUAGGCCAUGGAAACUAGGAGCACCAUUUCGCUGCCAGUGAAGAAAUGAACAAAGAAAAUCUGGGCCAGGCAGGCAUCAAAAGAAAUAGUCUUGCGCUCAACCAGAAAGCCUGUAAUCAUUUUAAGGGUA [A5U U120C] | 0.76 |
| GUUAACGGUCAUAGGCCAUGGAAACUAGGAGCACCAUUUCGCUGCCAGUGAAGAAAUGAACAAAGAAAAUCUGGGCCAGGCAGGCAUCGAAAGAUAUAGUCUUGCGCUCAACCAGAAAGUCUGUAAUCAUUUUAAGGGUA [A89G A95U] | 1.95 |
| GUUAACGGUCAUAGGCCAUGGAAACUAGGAGCACCAUUUCGCUGCCAGUGAACAAAGGAACAAAGAAAAUCUGGGCCAGGCAGGCAUCAAAAGAAAUAGUCUUGCGCUCAACCAGAAAGUCUGUAAUCAUUUUAAGGGUA [G53C U57G] | 0.65 |
| GUUAACGGUCAUAGCCCAUGGAAACUAGGAGCACCAUUUCGCUGCCAGUGAAGAAAUGAACAAAGAAAAUCUGGGCCAGGCAAGCAUCAAAAGAAAUAGUCUUGCGCUCAACCAGAAAGUCUGUAAUCAUUUUAAGGGUA [G15C G83A] | 2.06 |
| GUUAACGGUCAUAGGCCAUGGAAACUAGGAGCACCAUUUCACUGCCAGUGAAGAAAUGAACAAAGAAAAUCUGGGCCAGGCAGGCAUCAAAAGAAAUAGUCUUGCGCUCAACCAGAGAGUCUGUAAUCAUUUUAAGGGUA [G41A A117G] | 0.44 |
| GUUAACGGUCAUAGGCCAUGGAAACUAGGAGCACCAUUUCGCUGCCAGUGAAGAAUUGAACAAAGAAAUUCUGGGCCAGGCAGGCAUCAAAAGAAAUAGUCUUGCGCUCAACCAGAAAGUCUGUAAUCAUUUUAAGGGUA [A56U A69U] | 0.67 |
| GCUAACGGUCAUAGGCCAUGGAAACUAGGAGCACCAUUUCGCUGCCAGUGAAGAAAUGAACAAAGAAAAUCUGGGCCAGGCAGGCAUCUAAAGAAAUAGUCUUGCGCUCAACCAGAAAGUCUGUAAUCAUUUUAAGGGUA [U2C A89U] | 1.7 |
| GUUAACGGUCAUAGGCCAUGGAAACUAGGAGCACCAUCUCGCUGCCAGUGAAGAAAUGAACAAAGAAAGUCUGGGCCAGGCAGGCAUCAAAAGAAAUAGUCUUGCGCUCAACCAGAAAGUCUGUAAUCAUUUUAAGGGUA [U38C A69G] | 0.88 |
| GUUAACGGUCAUAGGCCAUGGAAACUGGGAGCACCAUUUCGCUGCCAGUGAAGAAAUGAACAAAGAAAAUCUGGGCCUGGCAGGCAUCAAAAGAAAUAGUCUUGCGCUCAACCAGAAAGUCUGUAAUCAUUUUAAGGGUA [A27G A78U] | 0.34 |
| GUUAACGGUCAUAGGCCAUGGAAACUAGGAGCACCAUUUCGCUGCCAGUGAAGAAAUGAACAAAGAAAAUCUGGGCCAGGCAGGCAUCAAAAGAAAUAGUCUUGCGCUCAACCGGGAAGUCUGUAAUCAUUUUAAGGGUA [A114G A116G] | 0.1 |
| GUUAACGGUCAUAGGCCAUGGAAACUAGGAGCACCAUUUCGCUGCCAGUGAAGAAAUGAACAAGGAAAAUCUGGGCCAGGCAGGCAUCAAAAGAAAUAGUCUCGCGCUCAACCAGAAAGUCUGUAAUCAUUUUAAGGGUA [A64G U103C] | 1.2 |
